{"source": "paper PMC12520357", "about": "(2025)", "parents": {"B1": {"name": "Reg1-FLAG (wild type) [S. cerevisiae] / Glc7-GFP [S. cerevisiae] (parent complex)", "chain 1": "MSTNLANYFAGKKDIENEHVNRNASHESNSKSDVKISGNDNDNDEDMGPSVSMAVQAKNDDDFHKSTFNLKRTRSMGLLDEYIDPTKKLLGRSDDLYDNDNEYYDNSSNNSSSNSSDDDYDDGYQEHSTSVSPPPADNDSYLIPQDDNDVVVEPERHVDYLSHEWKESEISNSWKYIILKKKKRDVDLVNAARLENASWRTWAKARNNLKTVSPEVVNWSKDSDVTWLYGPIVRDSEGNAQSEEEHDLERGYGSDDENSKRISMPTKNSKSIAAAPKPILKKRTVTEIIEDNALWKLNEARKHMTEMKHASVIMDPNGNKNVHDDFDALAAQVNAQYYHYPKESNSSVSLKSQHSDKKDNSTIPNPVGENSNGGGDKGEEDLHLKSALHVQNNRSTAQSNKSILENSTNDRKANLDQNLNSPDNNRFPSSTSSSNRDNENNSMGLSSILTSNPSEKSNKPTKNRHIHFNDRVEQCMALRYPASQSEDDESDDENKQYVDVNNNANVTTINNNRTPLLAIQHKSIPINSATEHLNKNTSDDDTSSQSSSSSHSDDEEHGGLYINARFSRRSDSGVHSPITDNSSVASSTTSRAHVRPIIKLLPDTTLNYGSDEESDNGEFNGYGNAVSHNVNTSRGYDYIYDYNSVYTGDTSSFLPVDSCDIVDVPEGMDLQTAIADDNASNYEFNNAVESKEKHVPQLHKASANNTTRQHGSHMLLYDDDNYSSSSDSEQQFIEDSQYNSSDDEEEEDDDDQEVDDNHDEGLSLRRTLSLGKSGSTNSLYDLAQPSLSSATPQQKNPTNFTGGKTDVDKDAQLAVRPYPLKRNSSSGNFIFNSDSEEESSSEEEQRPLPANSQLVNRSVLKGSVTPANISSQKKKALPKQPKASDSSQSFRIVNNTPSPAEVGASDVAIEGYFSPRNESIKSVVSGGNMMDHQDHSEMDTLAKGFENCHINNASKLKDKKVDSVQTTRKEASLTDSSNESLHKVVQNARGMASKYLHSWKKSDVKPQENGNDSS", "chain 2": "MDSQPVDVDNIIDRLLEVRGSKPGQQVDLEENEIRYLCSKARSIFIKQPILLELEAPIKICGDIHGQYYDLLRLFEYGGFPPESNYLFLGDYVDRGKQSLETICLLLAYKIKYPENFFILRGNHECASINRIYGFYDECKRRYNIKLWKTFTDCFNCLPIAAIIDEKIFCMHGGLSPDLNSMEQIRRVMRPTDIPDVGLLCDLLWSDPDKDIVGWSENDRGVSFTFGPDVVNRFLQKQDMELICRAHQVVEDGYEFFSKRQLVTLFSAPNYCGEFDNAGAMMSVDESLLCSFQILKPAQKSLPRQAGGRKKK"}, "B2": {"name": "Reg1-FLAG (wild type) [S. cerevisiae] / Snf1-GFP [S. cerevisiae] (parent complex)", "chain 1": "B1 chain 1", "chain 2": "MSSNNNTNTAPANANSSHHHHHHHHHHHHHGHGGSNSTLNNPKSSLADGAHIGNYQIVKTLGEGSFGKVKLAYHTTTGQKVALKIINKKVLAKSDMQGRIEREISYLRLLRHPHIIKLYDVIKSKDEIIMVIEYAGNELFDYIVQRDKMSEQEARRFFQQIISAVEYCHRHKIVHRDLKPENLLLDEHLNVKIADFGLSNIMTDGNFLKTSCGSPNYAAPEVISGKLYAGPEVDVWSCGVILYVMLCRRLPFDDESIPVLFKNISNGVYTLPKFLSPGAAGLIKRMLIVNPLNRISIHEIMQDDWFKVDLPEYLLPPDLKPHPEEENENNDSKKDGSSPDNDEIDDNLVNILSSTMGYEKDEIYESLESSEDTPAFNEIRDAYMLIKENKSLIKDMKANKSVSDELDTFLSQSPPTFQQQSKSHQKSQVDHETAKQHARRMASAITQQRTYHQSPFMDQYKEEDSTVSILPTSLPQIHRANMLAQGSPAASKISPLVTKKSKTRWHFGIRSRSYPLDVMGEIYIALKNLGAEWAKPSEEDLWTIKLRWKYDIGNKTNTNEKIPDLMKMVIQLFQIETNNYLVDFKFDGWESSYGDDTTVSNISEDEMSTFSAYPFLHLTTKLIMELAVNSQSN"}}, "data": [{"variants_of": "B1", "experiment": "co-immunoprecipitation (anti-FLAG IP, immunoblot quantification); n = 3; reg1Δ Snf1-GFP Glc7-GFP cells; parent: 1; read off a plot", "values": [{"variant": "chain 1 P278Q", "ratio to parent": "~0.8"}, {"variant": "chain 1 P231S", "ratio to parent": "~0.81"}, {"variant": "chain 1 A54T", "ratio to parent": "~0.93"}, {"variant": "chain 1 W165G", "ratio to parent": "~0.66"}, {"variant": "chain 1 N624S", "ratio to parent": "~1.5"}]}, {"variants_of": "B2", "experiment": "co-immunoprecipitation (anti-FLAG IP, immunoblot quantification); n = 3; reg1Δ Snf1-GFP Glc7-GFP cells; parent: 1; read off a plot", "values": [{"variant": "chain 1 P278Q", "ratio to parent": "~0.95"}, {"variant": "chain 1 P231S", "ratio to parent": "~1.1"}, {"variant": "chain 1 W165G", "ratio to parent": "~0.8"}, {"variant": "chain 1 N624S", "ratio to parent": "~0.74"}, {"variant": "chain 1 A54T", "ratio to parent": "~0.84"}]}]}
